# According to publication PMC10928576, “Cpne7 deficiency induces cellular senescence and premature aging of dental pulp” (Aging Cell, 2023):
# Experiments:
# hDPCs [1] = assay: RNA-sequencing of rCPNE7-treated hDPCs; assay type: cell-based, human; settings: n = 3
# Experimental: The isolated RNA (n = 3, each group) was shipped to Macrogen (Seoul, Korea) for the library preparation, sequencing, and analysis of data. The cDNA Library for sequencing was prepared using TruSeq Stranded mRNA LT Sample Prep Kit. Total RNA was randomly fragmented, converted to complementary DNA (cDNA), and amplified according to the manufacturer's protocol. The cDNA was then ligated to sequencing adapters. Sequencing was performed on Illumina's HiSeq2500 platform. HISAT2 was used for mapping trimmed reads to reference genome (UCSC mm10), and the transcript assembly was performed using StringTie. To identify differentially expressed genes (DEGs), the expression profile was calculated for each sample and normalized to FPKM. KEGG database and Gene Ontology were used to perform functional annotation and gene‐set enrichment analysis on DEGs for known gene annotation. Genes with |fc| 1.5 and independent T‐test raw p‐value <0.05 were counted as significant.
# hDPCs [2] = assay: Comet assay; assay type: cell-based, human; settings: 24 h, 1 mM H2O2 + rCPNE7, vs H2O2 only, n = 3
# Experimental: Human DPCs were combined with Comet Agarose (Abcam, ab238544) at 1/10 ratio (v/v), mixed by pipetting, and immediately transferred onto the top of the Comer Agarose Base Layer Slide (Abcam, ab238544). Set horizontally, the slides were incubated at 4°C in the dark for 15 min, and placed in a small basin/container containing pre‐chilled Lysis Buffer (Abcam, ab238544). They were immersed in the buffer for 1 h at 4°C in the dark. After 1 h, aspiration of the Lysis Buffer from the container was done and replaced with a pre‐chilled Alkaline Solution (Abcam, ab238544), followed by electrophoresis chamber filled with the Alkaline Electrophoresis Solution. Voltage was applied to the chamber for 30 min at 1 volt/cm. The slides were then rinsed with pre‐chilled DI H2O and replaced with cold 70% Ethanol for 5 min. The slide was removed from the 70% Ethanol and allowed to air dry. Once the slide was completely dry, staining with Vista Green DNA Dye (Abcam, ab238544) was done at room temperature for 15 min. Cells were visualized using confocal microscopy (LSM980, Zeiss, Germany) (n = 3, each group).
# hDPCs [3] = assay: Live-cell imaging of intracellular ROS (DCFDA); assay type: cell-based, human; settings: rCPNE7 treatment 15 min after H2O2 treatment, n = 3
# Experimental: Human DPCs were stained with DCFDA‐cellular ROS assay kit (Abcam, ab113851) for 40 min at 37°C in a humidified environment at 5% CO2. Then, live cell imaging was performed with a filter set appropriate for fluorescein (FITC) (n = 3, each group). Low light conditions were maintained to avoid photobleaching and photo‐oxidation of DCF.
# [4] = tested on: bone marrow stem cells (BMSCs); assay: Mouse subcutaneous ex vivo transplantation (HA/TCP, PCL), BMSCs; assay type: in vivo, immunocompromised mice; settings: rCPNE7 treatment
# Experimental: (§1) The hDPCs, ADSCs, BMSCs, GFs, and PDLSCs (2 × 10^6) were mixed with 100 mg of hydroxyapatite/tricalcium phosphate ceramic powder (Zimmer) alone or with rCPNE7 (100 ng/mL) in an 0.5% fibrin gel. The poly ε‐caprolactone (PCL: Mw 80,000, Sigma–Aldrich, Oakville, ON, Canada) was wrapped around the mixed cells and transplanted subcutaneously into immunocompromised mice (NIHbg‐nu‐xid; Harlan Laboratories) for 6 weeks (n = 3, each group).
# [5] = tested on: shCpne7-transfected hDPCs; assay: DNA damage rescue model in shCpne7-transfected hDPCs (western blot); assay type: cell-based, human; settings: hDPCs treated after shCpne7 transfection; rCPNE7 100 ng/mL or CPNE7-DP 10 μg/mL
# Experimental: The hDPCs were obtained from the Seoul National University Dental Hospital, and the experimental protocol was accepted by the Institutional Review Board of the Seoul National University (S‐D20140007). Informed consent was obtained from patients. Human DPCs were isolated and used in an in vitro experiment as described previously (Jung et al., [2011]). Human DPCs were cultured in minimum essential medium α (Gibco BRL, 12571063) supplemented with 10% heat‐inactivated fetal bovine serum (FBS; Gibco BRL, 16000044) and antibiotic‐antimycotic (Gibco BRL, 15240062) at 37°C in an atmosphere with 5% CO2. The cells were then treated with recombinant CPNE7 protein (rCPNE7, 100 ng/mL; Origene, TP306428) or CPNE7‐derived peptide (CPNE7‐DP, 10 μg/mL). After oxidative stress‐induced DNA damage using Hydrogen Peroxide Solution (H2O2; Merck, H1009) rCPNE7 was treated after replacement with a new culture medium (α‐MEM). […]
# Cellular proteins (30 μg) were separated by 10% or 15% sodium dodecyl sulfate‐polyacrylamide gel electrophoresis (SDS‐PAGE) and transferred to polyvinylidene fluoride (PVDF) membranes. […] Labeled protein bands were detected under an enhanced chemiluminescence system (Amersham Biosciences/GE Healthcare). […] Semi‐quantitative analyses were performed using Image J software (National Institute of Health, MD, USA) (n = 3, each group).
# [6] = tested on: human dental pulp cells (hDPCs); assay: Live-cell imaging of hDPC morphology with or without rCPNE7; assay type: cell-based; settings: rCPNE7 100 ng/mL for 24 h, then differentiation media 7 days, vs control, n = 3
# Experimental: (§2) The hDPCs were obtained from the Seoul National University Dental Hospital, and the experimental protocol was accepted by the Institutional Review Board of the Seoul National University (S‐D20140007). Informed consent was obtained from patients. Human DPCs were isolated and used in an in vitro experiment as described previously (Jung et al., [2011]). Human DPCs were cultured in minimum essential medium α (Gibco BRL, 12571063) supplemented with 10% heat‐inactivated fetal bovine serum (FBS; Gibco BRL, 16000044) and antibiotic‐antimycotic (Gibco BRL, 15240062) at 37°C in an atmosphere with 5% CO2. The cells were then treated with recombinant CPNE7 protein (rCPNE7, 100 ng/mL; Origene, TP306428) or CPNE7‐derived peptide (CPNE7‐DP, 10 μg/mL). After oxidative stress‐induced DNA damage using Hydrogen Peroxide Solution (H2O2; Merck, H1009) rCPNE7 was treated after replacement with a new culture medium (α‐MEM).
# The morphologic change of hDPCs treated with or without rCPNE7 was measured by live‐cell imaging (n = 3, each group). After being treated with rCPNE7 for 24 h, the cells were differentiated for 7 days and scanned for 2 days. Bright‐field images of the cells were acquired using a confocal laser scanning microscopy system (LSM980, Zeiss, Germany). […] Timelapse images collected from a single Z plane were recorded at 8‐min intervals.
# hDPCs [7] = assay: γ-H2AX / P21 western blot in H2O2-treated hDPCs; assay type: cell-based, human; settings: H2O2 + rCPNE7, after 48 h, vs H2O2 only
# Experimental: Cellular proteins (30 μg) were separated by 10% or 15% sodium dodecyl sulfate‐polyacrylamide gel electrophoresis (SDS‐PAGE) and transferred to polyvinylidene fluoride (PVDF) membranes. The PVDF membranes were blocked for 1 h with 5% nonfat dry milk in Tris‐buffered saline containing 0.1% Tween 20 (TBS‐T) and incubated overnight at 4°C with the primary antibody diluted in TBS‐T (1:5000). After washing, membranes were incubated for 1 h with the appropriate secondary antibodies. Labeled protein bands were detected under an enhanced chemiluminescence system (Amersham Biosciences/GE Healthcare). All reactions were performed in triplicate. Semi‐quantitative analyses were performed using Image J software (National Institute of Health, MD, USA) (n = 3, each group).
# [8] = tested on: adipogenic stem cells (ADSCs); assay: Mouse subcutaneous ex vivo transplantation (HA/TCP, PCL), ADSCs; assay type: in vivo, immunocompromised mice; settings: adipose stem cells, rCPNE7 treatment
# Experimental: as §1
# dentinal damage sites = settings: treated onto dentinal damage sites; ref Lee et al., [2020]; cited from earlier work
# Description: However, little is known about how odontoblasts age and survive through the days beyond entering dormancy, which actually comprise the major part of their life span. Aging is defined as a gradual loss of physiologic tissue integrity and impaired function, ultimately leading to cell death. Aged pulp is characterized by lower cell population, pulp stem cell tiredness, and, overall, reduced responsiveness to external stimuli (Bernick & Nedelman, [1975]). It has been reported that one of the survival mechanisms of aging odontoblasts is autophagy, which involves degradation and turnover of cellular ...
# hDPCs [9] = assay: Mouse subcutaneous ex vivo transplantation (HA/TCP, PCL), hDPCs; set-up: species or system human cells in immunocompromised mice; settings: hDPCs + 100 mg HA/TCP with rCPNE7 100 ng/mL in PCL, 6 weeks, vs control, n = 3
# Experimental: as §1
# hDPCs [10] = assay: γ-H2AX immunofluorescence in hDPCs; assay type: cell-based, human; settings: rCPNE7 after 30 min of 1 mM H2O2, vs H2O2 only
# Experimental: Human DPCs and tissue sections were treated with phosphate‐buffered saline (PBS) and 0.5% Triton X‐100 for permeabilization. After washing and blocking, cells and tissue samples were incubated overnight at 4°C with γ‐H2AX (1:100, Cell Signaling Technology, #9718) and CPNE7 (1:100) in blocking buffer (PBS and 2% bovine serum albumin). Subsequently, FITC‐conjugated anti‐rabbit secondary antibody (1:500) or Cy3‐conjugated anti‐rabbit (1:500) was applied. Cells were visualized using confocal microscopy (LSM980, Zeiss, Germany). The chromosomal DNA in the nucleus was stained with 4′,6‐diamidino‐2‐phenylindole (DAPI). The microtubules were detected using α‐TUBULIN antibodies (1:1000; Santa Cruz), and F‐ACTIN was stained with Alexa Fluor 488 or rhodamine‐conjugated phalloidin (Invitrogen). Flag‐tagged rCPNE7 was detected using Flag‐antibodies (1:500; Sigma–Aldrich), and TAU was detected by TAU antibodies (1:100; CUSABIO). Immunofluorescence staining of TAU, F‐ACTIN, and α‐TUBULIN was analyzed using the IMARIS cell imaging software (Bitplane) (n = 3, each group).
# [11] = tested on: gingival fibroblasts (GFs); assay: Mouse subcutaneous ex vivo transplantation (HA/TCP, PCL), GFs; assay type: in vivo, immunocompromised mice
# Experimental: as §1
# (§3) Figure S1. (A) The gingival fibroblasts (GFs) or (B) periodontal ligament stem cells (PDLSCs) were mixed with 100㎎ of hydroxyapatite/tricalcium phosphate (HA) particles alone (control) or with rCPNE7 in a poly ε-caprolactone (PCL) spaces and transplanted subcutaneously into immunocompromised mice for 6 weeks. White arrows indicate newly formed mineralized tissues. Representative immunofluorescence images of DSP (red) were observed (n=3). DAPI (blue) was counterstained to indicate the nucleus. Scale bars: 50㎛.
# hDPCs [12] = tested on: hDPCs
# [13] = tested on: periodontal ligament stem cells (PDLSCs); assay: Mouse subcutaneous ex vivo transplantation (HA/TCP, PCL), PDLSCs; assay type: in vivo, immunocompromised mice
# Experimental: as §1, §3
# hDPCs [14] = assay: Senescence β-galactosidase (SA-β gal) staining of H2O2-treated hDPCs; assay type: cell-based, human
# Experimental: as §2
# Human DPCs were fixated with Fixative Solution (Cell Signaling Technology, #9860) at room temperature for 15 min. Rinsed twice with PBS, the cells were then stained with β‐Galactosidase Staining Solution (Cell Signaling Technology, #9860) at 37°C overnight in a dry incubator (no CO2). Cells were observed using light microscopy (Primovert, Zeiss, Germany) (n = 3, each group).
molecule,measurement,setting,value
"rCPNE7: recombinant CPNE7 protein (Origene, TP306428) (protein, UniProt Q9UBL6 1-633, looked up) Copine-7: MSAGSERGAAATPGGLPAPCASKVELRLSCRHLLDRDPLTKSDPSVALLQQAQGQWVQVGRTEVVRSSLHPVFSKVFTVDYYFEEVQRLRFEVYDTHGPSGFSCQEDDFLGGMECTLGQPAQKWLLQVVMRVSVDVLGPAGHCAKHFLCCTESSHLARTGPSFLLRYDDLCLPWATAGAVRWWTCRGGHTQGWQIVAQKKVTRPLLLKFGRNAGKSTITVIAEDISGNNGYVELSFRARKLDDKDLFSKSDPFLELYRVNDDQGLQLVYRTEVVKNNLNPVWEAFKVSLSSLCSCEETRPLKCLVWDYDSRGKHDFIGEFSTTFEEMQKAFEEGQAQWDCVNPKYKQKRRSYKNSGVVVLADLKFHRVYSFLDYIMGGCQIHFTVAIDFTASNGDPRNSCSLHYINPYQPNEYLKALVSVGEICQDYDSDKRFSALGFGARIPPKYEVSHDFAINFNPEDDECEGIQGVVEAYQNCLPRVQLYGPTNVAPIISKVARVAAAEESTGKASQYYILLILTDGVVTDMADTREAIVRASRLPMSIIIVGVGNADFTDMQVLDGDDGVLRSPRGEPALRDIVQFVPFRELKNASPAALAKCVLAEVPKQVVEYYSHRGLPPRSLGVPAGEASPGCTP",mRNA expression levels of histone and chromatin-related genes,hDPCs [1],significantly increased
same,length of comet tail (fragmented DNA),hDPCs [2],much shorter
same,intracellular ROS level (DCFDA fluorescence),hDPCs [3],gradually decreased back to the normal level
same,odontoblastic differentiation upon treatment,[4],did not undergo odontoblastic differentiation
same,expression level of γ-H2AX (western blot),[5],evidently diminished
same,cellular process morphology,[6],elongation of a uni‐directional cellular process was observed
same,protein expression level of γ-H2AX (western blot),hDPCs [7],hardly detected
same,odontoblastic differentiation upon treatment,[8],did not undergo odontoblastic differentiation
same,dentin formation at dentinal damage sites,dentinal damage sites,tertiary dentin formation of tubular nature
same,odontoblast-like differentiation and dentin-like tissue-forming capacity ex vivo,hDPCs [9],enhanced odontoblast‐like differentiation and dentin‐like tissue‐forming capacity
same,accumulation of DNA damage (γ-H2AX immunofluorescence),hDPCs [10],rarely observed
same,amount of newly formed DSP-positive mineralized tissue,"[11]; GFs + HA/TCP with rCPNE7 in PCL spaces, 6 weeks, vs control, n = 3",slightly greater amount
same,odontoblastic differentiation upon treatment,"[11]; GFs, rCPNE7 treatment",did not undergo odontoblastic differentiation
same,cell viability (WST-8),"hDPCs [12]; rCPNE7 after 30 min treatment of 1 mM or 2 mM H2O2, 48 h, vs H2O2 only",cell viability was higher
same,cell-to-cell contact (light microscopy),"hDPCs [12]; rCPNE7 after 30 min treatment of H2O2, vs H2O2 only",more organized
same,amount of newly formed DSP-positive mineralized tissue,"[13]; PDLSCs + HA/TCP with rCPNE7 in PCL spaces, 6 weeks, vs control, n = 3",slightly greater amount
same,odontoblastic differentiation upon treatment,"[13]; PDLSCs, rCPNE7 treatment",did not undergo odontoblastic differentiation
same,progress of cellular senescence (SA-β gal),"hDPCs [14]; hDPCs in growth media containing rCPNE7 for 72 h after oxidative stress (1 mM H2O2) for an hour, vs control",progressed more slowly than the control
same,number of SA-β gal-positive dental pulp cells,"hDPCs [14]; hDPCs passage 3, 1 mM H2O2 + rCPNE7, an hour later, vs H2O2 only, n = 3",significantly decreased
